molecular target: Flag-tagged mR3-3 c-Myb (chicken) (UniProt P01103); assay: protein chromatin immunoprecipitation (PChIP); 293T cells fixed with 1% formaldehyde, lysate sonicated to chromatin fragments of 100-300 bp, anti-Flag M2 agarose, washes up to 500 mM NaCl and 500 mM LiCl, histones detected by western blot
Chain of UniProt P01103 (P01103 other isoform, or with tags, fused parts or gaps): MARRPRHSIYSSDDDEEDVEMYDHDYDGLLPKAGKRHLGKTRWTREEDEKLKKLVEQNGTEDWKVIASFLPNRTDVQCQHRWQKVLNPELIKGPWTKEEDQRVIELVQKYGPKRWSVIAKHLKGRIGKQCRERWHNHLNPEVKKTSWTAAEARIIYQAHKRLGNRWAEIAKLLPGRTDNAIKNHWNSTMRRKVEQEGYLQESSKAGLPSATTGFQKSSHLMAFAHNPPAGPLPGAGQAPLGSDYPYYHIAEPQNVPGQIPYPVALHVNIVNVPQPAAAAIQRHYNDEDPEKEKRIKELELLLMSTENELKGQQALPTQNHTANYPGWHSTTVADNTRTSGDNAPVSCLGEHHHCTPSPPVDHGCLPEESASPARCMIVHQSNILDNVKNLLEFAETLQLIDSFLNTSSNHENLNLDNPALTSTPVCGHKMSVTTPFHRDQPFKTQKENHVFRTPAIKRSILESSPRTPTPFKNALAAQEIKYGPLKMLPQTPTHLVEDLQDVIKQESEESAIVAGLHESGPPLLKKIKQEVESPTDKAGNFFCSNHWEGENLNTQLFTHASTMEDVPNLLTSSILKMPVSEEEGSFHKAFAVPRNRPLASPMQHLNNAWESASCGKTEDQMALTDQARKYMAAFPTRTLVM

percent decrease in association against wild-type c-Myb | Substance
50% | histone H3 (from UniProt P68431 1-136) (natural protein)
50% | histone H2A (from UniProt P0C0S8 1-130) (natural protein)
50% | histone H4 (from UniProt P62805 1-103) (natural protein)

Source: paper PMC2572630
